± gives the half width of the 95% confidence interval.
Assays:
[1] = folding stability dG unfold (combined trypsin and chymotrypsin); higher = more stable
Procedure, shortened: (§1)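 Unfolding free energy was derived, per protease or combined, by relating Bayesian-fitted K50 values from sequencing counts to a sequence-predicted unfolded-state K50 and a shared folded-state K50. The underlying digests exposed cysteine-free mini-proteins under 80 residues, in a PA-tagged cDNA display construct, to trypsin and chymotrypsin at 11 threefold-diluted concentrations and to a no-protease condition. A filter kept only designs with AlphaFold2 dimer inter-PAE above 15.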

[2] = folding stability dG unfold from trypsin proteolysis; higher = more stable
Procedure, shortened: as §1

[3] = folding stability dG unfold from chymotrypsin proteolysis; higher = more stable
Procedure, shortened: as §1

Sequence	folding stability dG unfold [1] [kcal/mol]	folding stability dG unfold [2] [kcal/mol]	folding stability dG unfold [3] [kcal/mol]
SAGGSAGGSGVSSVLESLPPSYTVTVEKLPESGKLVVTVTSPSGAAPSLTLDEELADLLKELLSAGGSAGGS [r12_174_JUSTAS]	1.47 ± 0.093	2.2 ± 0.13	0.626 ± 0.03
SAGGSAGGSGVSSVRPVALPGGRVLVLEYFSSTGKVRVTTLTVGDGRPARAESVTPVTPESILSAGGSAGGS [r12_961_JUSTAS]	0.495 ± 0.09	0.598 ± 0.052	0.275 ± 0.098
SAGGSAGGSGVTIPIWYKMDPGQPVPTAEEIQNIINELGFPIKDIKVQYHPDNGYVRAEITVKSAGGSAGGS [r12_1052_TrROS]	1.11 ± 0.17	1.25 ± 0.048	0.828 ± 0.088
SAGGSAGGSGYLSQERPVTIKLPNGEVVEVDGVVRESPESDVVTVEIPETGQTIEVPKANVVESAGGSAGGS [r12_772_JUSTAS]	0.447 ± 0.1	0.909 ± 0.06	-0.035 ± 0.16
SAGGSAGGSHRIIFRINSPGMPPRQAADRIADMLQEEHGLKIKGVDIWTYPNGSYWVTITIEPSAGGSAGGS [r12_781_TrROS]	2.89 ± 0.073	2.77 ± 0.055	2.98 ± 0.042
SAGGSAGGSIEELAKKTNIIEVKVTEFPNPKFKKAFIVYKNPKENKYKKGIYIFYDKKDGKLESAGGSAGGS [r12_133_TrMRF]	0.313 ± 0.23	-0.185 ± 0.35	0.544 ± 0.43
SAGGSAGGSIEIPGGYTIPSSLSEEEAKEAAKKLFLEKNPELGVKEVEVKVETKNGKKTITVVKSAGGSAGG [r6_558_JUSTAS]	0.714 ± 0.28	0.641 ± 0.074	0.857 ± 0.14
SAGGSAGGSIKPGEEVTINFLVPPGNIPEFANELMKQDGIKDIEVKYQPFPNWYMVDITIRVKSAGGSAGGS [r12_993_TrROS]	0.52 ± 0.096	0.863 ± 0.029	-0.0266 ± 0.14
SAGGSAGGSKAEVVEEKEIFTFPNGFVIKLTKVKNENGEEFEFIEIVPLPPELTEEELKKLKESAGGSAGGS [r12_775_TrROS_Hall]	1.79 ± 0.065	0.711 ± 0.033	2.14 ± 0.023
SAGGSAGGSKEFKVEEVGGRLYITFPDGTVVEVRFDKPVTFDLKTGKLYFPEGAEVEKRRLKESAGGSAGGS [r20_158_TrROS_Hall]	0.905 ± 0.26	0.0253 ± 0.24	1.19 ± 0.12
SAGGSAGGSKEKKTVILRIKIYVKNENGELIEEIEIPLKDLTLEELKELAKKLNVKVEIELLPSAGGSAGGS [r12_398_TrROS_Hall]	3.05 ± 0.2	1.69 ± 0.16	3.5 ± 0.14
SAGGSAGGSKEKKYLVIELKLKVPPGMSPEELAKLLESLPGLKVVEIVEVDEESGTVKIVVELSAGGSAGGS [r12_712_TrROS_Hall]	3.07 ± 0.16	2.02 ± 0.046	3.54 ± 0.096
SAGGSAGGSKEPIRVDEFEWRKNKDGMDMVQVTFPNNGKDIHLPPEHLDNLEPGDEIPLDDLISAGGSAGGS [r20_3_TrROS]	-0.138 ± 0.2	-0.677 ± 0.12	0.192 ± 0.17
SAGGSAGGSKEVKTIKVEITITDKNGKKITVKAEIVYDKKTKKYYIKIRNKKTNKTYIIELKLSAGGSAGGS [r20_71_TrROS_Hall]	4.47 ± 0.08	3.29 ± 0.088	4.753 ± 0.047
SAGGSAGGSKFEITEVSVELVEVDGKLYLKVSMTIKNEDGSTYKISLVYDLENNELYLSIEKVSAGGSAGGS [r12_1035_TrROS_Hall]	5.87 ± 0.37	4.12 ± 0.43	5.7 ± 0.16
SAGGSAGGSKFKIVSIEVTVETNEDGSKTLTVKIRLEDGSEITITVPENATLEEVLKLLKELASAGGSAGGS [r12_1047_TrROS_Hall]	4.31 ± 0.11	3.88 ± 0.2	4.42 ± 0.051
SAGGSAGGSKGPMITITLFILVRPDDGKYYATVIEMYIYPNGGIDIEMEMIPADDIPPGDIVISAGGSAGGS [r12_38_TrROS]	4.55 ± 0.22	2.94 ± 0.17	4.74 ± 0.15
SAGGSAGGSKIEFTVPDNDELIEYIRKWFQDNGGQIKNIKIEPTPPNQVKVEIEINPGDPWFQSAGGSAGGS [r12_647_TrROS]	2.2 ± 0.14	1.74 ± 0.041	2.36 ± 0.077
SAGGSAGGSKIEITVKTKEELLEAIRKLAEEKGYEIVSIKIEKLPDGTYKVTIEIRKNDPLLKSAGGSAGGS [r12_647_TrROS_Hall]	2.38 ± 0.12	1.35 ± 0.083	2.79 ± 0.076
SAGGSAGGSKIKPGEKVEIKLKIKVKDKNGKEKEIELTFSKDMTVEEIKKLLKELEKKGFEIESAGGSAGGS [r20_27_TrROS_Hall]	2.72 ± 0.33	1.56 ± 0.12	3.23 ± 0.24
SAGGSAGGSKIPPGEPVTLPIFFIIWDPENGRPYAMRMEITFDAPDGNITKMNEEVIPPGQPFSAGGSAGGS [r12_868_TrROS]	1.54 ± 0.14	1.5 ± 0.056	1.49 ± 0.17

From the supplement of paper PMC12764529
